The supplement of paper PMC9876800

Tested on: peptide library, one residue held at a place counted from the S/T acceptor
Experiment: relative phosphorylation of the sub-library (ratio to the mean residue at this position); human; higher = residue favoured
Summary of the method: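 Relative sub-library phosphorylation is the ratio of each sub-library's signal to the mean residue at that position. The signal came from phosphorimaging of spots on streptavidin membranes, quantified by densitometry, after purified recombinant kinases reacted with biotinylated degenerate peptide sub-libraries in 384-well plates. Reactions held 50 μM peptide and 50 μM ATP spiked with γ-32P-ATP for 90 min under kinase-specific conditions.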

Chain of CHEK2, construct: Full length (O96017 whole entry, looked up): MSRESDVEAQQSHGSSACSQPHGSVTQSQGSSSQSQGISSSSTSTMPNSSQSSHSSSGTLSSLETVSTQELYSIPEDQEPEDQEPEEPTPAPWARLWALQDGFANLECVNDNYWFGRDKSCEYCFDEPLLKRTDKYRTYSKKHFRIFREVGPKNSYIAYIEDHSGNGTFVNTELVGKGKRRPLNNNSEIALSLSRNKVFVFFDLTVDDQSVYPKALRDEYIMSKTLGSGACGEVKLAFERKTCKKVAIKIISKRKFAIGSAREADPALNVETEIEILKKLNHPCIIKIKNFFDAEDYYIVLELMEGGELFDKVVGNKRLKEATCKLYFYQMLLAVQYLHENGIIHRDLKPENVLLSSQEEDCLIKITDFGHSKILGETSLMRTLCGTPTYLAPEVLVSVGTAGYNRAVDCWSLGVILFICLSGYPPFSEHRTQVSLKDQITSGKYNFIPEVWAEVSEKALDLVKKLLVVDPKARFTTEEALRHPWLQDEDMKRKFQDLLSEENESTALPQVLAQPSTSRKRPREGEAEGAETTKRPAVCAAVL
Chain of CDKL1, construct: aa2-304 (Q00532 2-304, looked up): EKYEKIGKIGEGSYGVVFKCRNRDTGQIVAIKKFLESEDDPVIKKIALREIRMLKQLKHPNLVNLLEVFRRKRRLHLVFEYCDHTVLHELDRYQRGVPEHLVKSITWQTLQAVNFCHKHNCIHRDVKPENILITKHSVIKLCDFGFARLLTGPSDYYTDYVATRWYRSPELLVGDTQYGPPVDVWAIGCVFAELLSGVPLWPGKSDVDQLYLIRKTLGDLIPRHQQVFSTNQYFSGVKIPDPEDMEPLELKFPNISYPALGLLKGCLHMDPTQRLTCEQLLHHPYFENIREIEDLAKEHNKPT
Chain of CIT, construct: aa1-449 (O14578 1-449, looked up): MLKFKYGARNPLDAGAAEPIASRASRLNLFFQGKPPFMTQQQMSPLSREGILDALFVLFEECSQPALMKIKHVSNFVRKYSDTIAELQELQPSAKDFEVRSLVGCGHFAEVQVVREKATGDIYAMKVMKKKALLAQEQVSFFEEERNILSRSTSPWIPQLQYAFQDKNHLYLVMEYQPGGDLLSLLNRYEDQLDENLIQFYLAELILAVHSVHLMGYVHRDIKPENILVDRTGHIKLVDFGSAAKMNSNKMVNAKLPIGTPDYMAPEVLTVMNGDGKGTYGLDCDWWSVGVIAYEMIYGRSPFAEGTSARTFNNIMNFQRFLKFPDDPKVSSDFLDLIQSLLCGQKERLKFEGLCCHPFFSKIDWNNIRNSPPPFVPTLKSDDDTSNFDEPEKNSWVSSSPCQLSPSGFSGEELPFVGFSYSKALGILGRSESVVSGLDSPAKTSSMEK
Chain of CDK10, construct: Full length (Q15131 whole entry, looked up): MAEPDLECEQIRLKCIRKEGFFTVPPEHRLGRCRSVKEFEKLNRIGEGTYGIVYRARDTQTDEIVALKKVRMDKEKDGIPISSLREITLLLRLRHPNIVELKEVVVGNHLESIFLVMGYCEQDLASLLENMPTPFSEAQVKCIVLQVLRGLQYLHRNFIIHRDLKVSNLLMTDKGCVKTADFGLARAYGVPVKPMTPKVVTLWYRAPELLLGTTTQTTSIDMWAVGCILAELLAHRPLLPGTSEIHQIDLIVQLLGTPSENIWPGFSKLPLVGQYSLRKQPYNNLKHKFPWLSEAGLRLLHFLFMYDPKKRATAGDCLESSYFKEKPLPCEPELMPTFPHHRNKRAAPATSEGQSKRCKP

CDK10, construct: Full length (from UniProt Q15131)
relative phosphorylation
Conditions | at +1 | at +2 | at +3 | at +4 | at -1 | at -2 | at -3 | at -4 | at -5
A fixed | 0.232 | 0.641 | 0.676 | 0.671 | 0.931 | 0.896 | 0.838 | 0.851 | 0.845
D fixed | 0.124 | 0.342 | 0.305 | 0.505 | 0.378 | 0.311 | 0.302 | 0.355 | 0.357
E fixed | 0.115 | 0.297 | 0.26 | 0.337 | 0.231 | 0.244 | 0.276 | 0.361 | 0.293
F fixed | 0.303 | 0.554 | 0.721 | 0.643 | 0.669 | 0.667 | 0.635 | 0.782 | 1.02
G fixed | 1.3 | 0.952 | 0.795 | 1.09 | 1.56 | 0.715 | 1.01 | 0.955 | 1.05
H fixed | 0.235 | 1.22 | 1.23 | 1.37 | 0.915 | 0.821 | 1.11 | 1.13 | 1.08
I fixed | 0.282 | 0.598 | 0.67 | 0.655 | 0.284 | 0.724 | 0.722 | 0.652 | 0.713
K fixed | 0.397 | 3.05 | 1.66 | 2.1 | 2.08 | 1.64 | 1.66 | 2.23 | 2.24
L fixed | 0.296 | 0.683 | 0.66 | 0.661 | 0.787 | 1.15 | 0.78 | 0.658 | 0.78
M fixed | 0.32 | 0.572 | 0.618 | 0.638 | 1.01 | 1.06 | 0.776 | 0.831 | 0.757
N fixed | 0.247 | 0.864 | 0.852 | 0.868 | 0.786 | 0.753 | 0.749 | 0.841 | 0.741
P fixed | 11.8 | 0.782 | 1.13 | 1.02 | 1.58 | 2.09 | 0.88 | 1.08 | 0.97
Q fixed | 0.294 | 0.967 | 0.874 | 1.24 | 0.859 | 0.958 | 0.874 | 0.973 | 0.911
R fixed | 0.405 | 3.58 | 4.52 | 2.61 | 2.65 | 2.65 | 3.91 | 2.3 | 2.25
V fixed | 0.245 | 0.515 | 0.716 | 0.691 | 0.408 | 0.731 | 0.625 | 0.628 | 0.605
W fixed | 0.241 | 0.541 | 0.621 | 0.967 | 1.11 | 0.872 | 0.997 | 1.46 | 1.26
Y fixed | 0.209 | 0.843 | 0.686 | 0.938 | 0.77 | 0.727 | 0.86 | 0.918 | 1.12
pThr fixed | 0.506 | 0.924 | 0.88 | 0.879 | 0.602 | 0.737 | 0.853 | 0.941 | 0.789
pTyr fixed | 0.461 | 0.367 | 0.508 | 0.431 | 0.375 | 0.388 | 0.538 | 0.559 | 0.537

CDKL1, construct: aa2-304 (from UniProt Q00532)
relative phosphorylation
Conditions | at +1 | at +2 | at +3 | at +4 | at -1 | at -2 | at -3 | at -4 | at -5
A fixed | 1.42 | 0.825 | 0.9 | 0.849 | 0.875 | 0.874 | 0.724 | 0.985 | 0.964
D fixed | 0.679 | 0.924 | 0.793 | 0.858 | 0.693 | 0.715 | 0.534 | 0.874 | 0.771
E fixed | 0.721 | 0.803 | 0.747 | 0.766 | 0.67 | 0.739 | 0.538 | 0.917 | 0.809
F fixed | 0.888 | 0.829 | 0.924 | 0.916 | 0.835 | 0.724 | 0.531 | 0.934 | 1.21
G fixed | 1.15 | 0.764 | 0.865 | 1.04 | 1.56 | 1.01 | 0.617 | 1.01 | 1
H fixed | 1.02 | 1.22 | 1.13 | 1.07 | 1.02 | 0.727 | 0.593 | 0.926 | 0.987
I fixed | 0.732 | 0.881 | 0.865 | 0.856 | 0.644 | 0.96 | 0.537 | 0.883 | 0.961
K fixed | 1.25 | 1.52 | 1.43 | 1.31 | 1.61 | 0.898 | 0.852 | 1.22 | 1.08
L fixed | 0.755 | 0.898 | 0.928 | 0.939 | 0.988 | 0.909 | 0.549 | 0.909 | 0.976
M fixed | 0.862 | 0.841 | 0.9 | 0.953 | 1.19 | 0.774 | 0.549 | 0.937 | 0.96
N fixed | 0.871 | 1.05 | 1 | 1.08 | 1.01 | 0.778 | 0.585 | 0.925 | 0.919
P fixed | 1.92 | 0.774 | 0.978 | 0.98 | 1.02 | 3.55 | 0.704 | 1.05 | 0.918
Q fixed | 0.894 | 1.03 | 1.05 | 1.07 | 1.05 | 0.856 | 0.707 | 1.08 | 0.972
R fixed | 1.33 | 2.02 | 1.63 | 1.47 | 1.44 | 1.21 | 7.35 | 1.54 | 1.63
V fixed | 0.744 | 0.888 | 0.944 | 0.83 | 0.736 | 0.873 | 0.54 | 0.967 | 0.896
W fixed | 0.819 | 0.808 | 0.899 | 1.09 | 0.768 | 0.71 | 0.539 | 0.944 | 0.889
Y fixed | 0.941 | 0.931 | 1.02 | 0.907 | 0.884 | 0.698 | 0.55 | 0.899 | 1.06
pThr fixed | 0.811 | 0.892 | 0.844 | 0.824 | 0.778 | 0.799 | 0.576 | 0.837 | 0.737
pTyr fixed | 0.652 | 0.663 | 0.733 | 0.692 | 0.717 | 0.75 | 0.786 | 0.876 | 0.726

CHEK2, construct: Full length (from UniProt O96017)
relative phosphorylation
Conditions | at +1 | at +2 | at +3 | at +4 | at -1 | at -2 | at -3 | at -4 | at -5
A fixed | 0.589 | 0.731 | 0.81 | 0.837 | 0.816 | 1.26 | 0.562 | 0.987 | 0.172
D fixed | 0.317 | 0.397 | 0.484 | 0.53 | 0.702 | 0.276 | 0.1 | 0.367 | 0.236
E fixed | 0.402 | 0.382 | 0.407 | 0.541 | 0.383 | 0.785 | 0.136 | 0.839 | 0.307
F fixed | 1.88 | 1.06 | 1.33 | 0.985 | 0.809 | 0.672 | 0.197 | 0.895 | 1.42
G fixed | 0.741 | 0.784 | 0.818 | 0.987 | 0.707 | 0.679 | 0.275 | 0.743 | 0.514
H fixed | 0.892 | 1.43 | 1.05 | 1.27 | 1.21 | 1.01 | 0.614 | 0.953 | 0.619
I fixed | 1.51 | 0.934 | 0.975 | 0.941 | 0.81 | 0.598 | 0.199 | 0.924 | 1.7
K fixed | 1.02 | 1.12 | 1.16 | 1.33 | 1.71 | 1.53 | 2.26 | 1.63 | 0.694
L fixed | 1.41 | 0.851 | 1.02 | 0.859 | 1.28 | 0.843 | 0.217 | 1.02 | 2.42
M fixed | 1.5 | 0.978 | 1.04 | 0.929 | 1.15 | 1.37 | 0.256 | 1.17 | 1.55
N fixed | 0.93 | 0.941 | 0.889 | 1.14 | 1.61 | 0.832 | 0.208 | 0.651 | 0.491
P fixed | 0.389 | 0.946 | 0.956 | 1.04 | 1.06 | 0.219 | 0.177 | 0.548 | 1.03
Q fixed | 0.877 | 0.801 | 0.857 | 0.945 | 0.84 | 1.71 | 0.543 | 1.09 | 0.815
R fixed | 1.34 | 1.97 | 1.53 | 1.65 | 1.63 | 2.92 | 10.5 | 2.23 | 1.52
V fixed | 1.04 | 0.875 | 0.848 | 0.731 | 0.777 | 0.621 | 0.205 | 1.1 | 1.39
W fixed | 1.07 | 1.24 | 1.44 | 1.17 | 0.587 | 0.639 | 0.284 | 0.807 | 0.914
Y fixed | 1.09 | 1.55 | 1.39 | 1.12 | 0.924 | 1.04 | 0.265 | 1.05 | 1.19
pThr fixed | 0.96 | 1.06 | 0.653 | 0.586 | 0.354 | 0.477 | 0.214 | 0.662 | 0.472
pTyr fixed | 0.529 | 0.489 | 0.659 | 0.575 | 0.603 | 0.4 | 0.178 | 0.574 | 0.725

CIT, construct: aa1-449 (from UniProt O14578)
relative phosphorylation
Conditions | at +1 | at +2 | at +3 | at +4 | at -1 | at -2 | at -3 | at -4 | at -5
A fixed | 0.788 | 1.01 | 0.8 | 0.784 | 0.721 | 0.715 | 0.553 | 1 | 0.448
D fixed | 0.453 | 0.586 | 0.789 | 0.886 | 0.385 | 0.254 | 0.176 | 0.422 | 0.299
E fixed | 0.373 | 0.517 | 0.638 | 0.851 | 0.372 | 0.28 | 0.171 | 0.504 | 0.276
F fixed | 1.34 | 1 | 1.37 | 0.882 | 0.778 | 0.406 | 0.259 | 0.622 | 0.767
G fixed | 0.937 | 2.04 | 1.1 | 1.13 | 0.905 | 0.435 | 0.382 | 0.931 | 0.498
H fixed | 1.24 | 1.3 | 1.67 | 1.15 | 1.75 | 0.874 | 0.797 | 0.997 | 0.804
I fixed | 0.914 | 0.884 | 0.866 | 0.948 | 0.394 | 0.693 | 0.251 | 0.612 | 1.09
K fixed | 0.779 | 0.694 | 0.781 | 0.858 | 2.2 | 3.1 | 1.76 | 2.77 | 1.75
L fixed | 1.02 | 0.768 | 0.995 | 1.01 | 0.874 | 0.826 | 0.25 | 0.74 | 0.89
M fixed | 1.14 | 0.77 | 0.889 | 1.03 | 0.888 | 0.88 | 0.303 | 0.801 | 0.603
N fixed | 1.41 | 1.06 | 0.882 | 1.14 | 1.17 | 0.779 | 0.4 | 0.735 | 0.465
P fixed | 0.461 | 1.36 | 1.23 | 1.43 | 1.39 | 0.42 | 0.739 | 0.978 | 0.631
Q fixed | 1.15 | 0.762 | 0.931 | 1.04 | 0.969 | 1.03 | 0.7 | 0.924 | 0.72
R fixed | 1.05 | 0.907 | 0.763 | 0.874 | 1.85 | 4.68 | 9.39 | 3.11 | 5.94
V fixed | 0.734 | 0.86 | 0.816 | 0.805 | 0.506 | 0.838 | 0.299 | 0.683 | 0.523
W fixed | 1.55 | 1.16 | 1.31 | 1.21 | 0.682 | 0.407 | 0.302 | 0.571 | 0.591
Y fixed | 1.66 | 1.33 | 1.17 | 0.979 | 1.17 | 0.389 | 0.272 | 0.598 | 0.707
pThr fixed | 0.466 | 0.609 | 0.878 | 1.12 | 0.349 | 0.323 | 0.259 | 0.491 | 0.405
pTyr fixed | 0.784 | 0.65 | 0.802 | 0.925 | 0.34 | 0.333 | 0.226 | 0.395 | 0.554
